Data published in article PMC11348219.
Values joined by “and” are separate entries in the source; they are usually repeats but may differ in a detail not shown here. Equal entries are not always repeated.

Molecular target: mutant-1a anti-A scFv
Assay: non-reducing SDS-PAGE; elution fraction EfA1 of nickel affinity chromatography on a Coomassie-stained 15% SDS-PAGE gel, non-reducing

B1: mutant-1a anti-A scFv (scFv, V domains shown)
VH: QVQLQQPGAELVKPGTSVKLSCKASGYNFTSYWINWVKLRPGQCLEWIGDIYPGSGITNYNEKFKSKATLTVDTSSSTAYMQLSSLASEDSALYYCAGQYGNLWFAYWGQGTLVTVSG
VL: DIQMTQTTSSLSASLGDRVTISCRASQDINNYLNWYQQKPDGTVKLLIHYTSRLHSGVPSRFSGSGSGTDYSLTISNLEQEDIATYFCQQGNTLPWTFGCGTKLEIK
- stoichiometry N: 2 and 3
